Where “and” joins values, the source holds several entries; their conditions need not be identical. Identical values can stand only once.
B1: PD1-BM-min (antibody, human IgG4 S228P, kappa, V domains shown)
VH: EVQLVESGGGLVQPGGSLRLSCAASGFVFSRYDMAWVRQAPGKGLEWVSFISGGGSNTYYPDTVKGRFTISRDNSKNTLYLQMNSLRAEDTAVYYCISPYYYAMEYWGQGTTVTVSS
VL: DIQMTQSPSSVSASVGDRVTITCKASQDVDTAVAWYQQKPGKAPKLLIYWASTRHTGVPSRFSGSGSGTDFTLTISSLQPEDFATYYCQQYSTFPWTFGGGTKVEIKR
notes: Full-length anti-PD-1 antibody, parental element of the BLP constructs; also called PD-BM-min; anti-PD-1 full-length antibody
B2: BLP-2 (bispecific antibody, human IgG4 S228P, kappa)
heavy: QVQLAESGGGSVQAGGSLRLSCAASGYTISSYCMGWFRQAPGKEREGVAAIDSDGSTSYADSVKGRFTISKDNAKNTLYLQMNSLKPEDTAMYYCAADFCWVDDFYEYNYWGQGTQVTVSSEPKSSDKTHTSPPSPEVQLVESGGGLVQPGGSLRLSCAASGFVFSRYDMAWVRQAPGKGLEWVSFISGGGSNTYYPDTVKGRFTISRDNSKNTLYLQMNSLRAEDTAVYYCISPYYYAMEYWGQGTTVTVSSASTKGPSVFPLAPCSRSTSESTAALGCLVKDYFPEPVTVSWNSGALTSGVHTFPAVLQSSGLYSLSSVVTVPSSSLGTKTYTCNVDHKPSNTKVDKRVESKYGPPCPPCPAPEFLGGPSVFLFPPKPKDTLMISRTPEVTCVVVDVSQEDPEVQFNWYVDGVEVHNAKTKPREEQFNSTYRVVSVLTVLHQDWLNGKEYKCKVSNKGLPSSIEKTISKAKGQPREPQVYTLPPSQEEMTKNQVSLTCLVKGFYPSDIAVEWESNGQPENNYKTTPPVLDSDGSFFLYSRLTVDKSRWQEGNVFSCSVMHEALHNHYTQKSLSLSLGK
light: DIQMTQSPSSVSASVGDRVTITCKASQDVDTAVAWYQQKPGKAPKLLIYWASTRHTGVPSRFSGSGSGTDFTLTISSLQPEDFATYYCQQYSTFPWTFGGGTKVEIKRTVAAPSVFIFPPSDEQLKSGTASVVCLLNNFYPREAKVQWKVDNALQSGNSQESVTEQDSKDSTYSLSSTLTLSKADYEKHKVYACEVTHQGLSSPVTKSFNRGEC
notes: also called PD-1 x LAG-3 proof-of-concept BABP
B3: BLP-3 (bispecific antibody, human IgG4 S228P, kappa)
heavy: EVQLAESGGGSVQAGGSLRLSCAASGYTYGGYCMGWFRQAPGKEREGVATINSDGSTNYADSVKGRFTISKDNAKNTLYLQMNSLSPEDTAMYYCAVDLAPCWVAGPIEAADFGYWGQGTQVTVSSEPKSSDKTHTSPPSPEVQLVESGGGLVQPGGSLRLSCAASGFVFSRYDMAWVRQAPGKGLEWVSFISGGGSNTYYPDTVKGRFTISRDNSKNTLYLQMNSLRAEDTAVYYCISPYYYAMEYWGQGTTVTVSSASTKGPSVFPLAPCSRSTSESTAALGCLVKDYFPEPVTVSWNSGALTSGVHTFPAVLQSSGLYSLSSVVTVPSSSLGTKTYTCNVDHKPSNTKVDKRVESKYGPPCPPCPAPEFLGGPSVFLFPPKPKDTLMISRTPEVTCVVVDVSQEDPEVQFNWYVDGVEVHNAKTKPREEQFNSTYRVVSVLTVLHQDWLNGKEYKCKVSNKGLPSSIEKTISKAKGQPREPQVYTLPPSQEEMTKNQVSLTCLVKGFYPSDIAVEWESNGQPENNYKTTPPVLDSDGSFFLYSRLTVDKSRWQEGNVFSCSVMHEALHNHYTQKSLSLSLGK
light: DIQMTQSPSSVSASVGDRVTITCKASQDVDTAVAWYQQKPGKAPKLLIYWASTRHTGVPSRFSGSGSGTDFTLTISSLQPEDFATYYCQQYSTFPWTFGGGTKVEIKRTVAAPSVFIFPPSDEQLKSGTASVVCLLNNFYPREAKVQWKVDNALQSGNSQESVTEQDSKDSTYSLSSTLTLSKADYEKHKVYACEVTHQGLSSPVTKSFNRGEC
notes: as for B2
B4: BLP-4 (bispecific antibody, human IgG4 S228P, kappa)
heavy: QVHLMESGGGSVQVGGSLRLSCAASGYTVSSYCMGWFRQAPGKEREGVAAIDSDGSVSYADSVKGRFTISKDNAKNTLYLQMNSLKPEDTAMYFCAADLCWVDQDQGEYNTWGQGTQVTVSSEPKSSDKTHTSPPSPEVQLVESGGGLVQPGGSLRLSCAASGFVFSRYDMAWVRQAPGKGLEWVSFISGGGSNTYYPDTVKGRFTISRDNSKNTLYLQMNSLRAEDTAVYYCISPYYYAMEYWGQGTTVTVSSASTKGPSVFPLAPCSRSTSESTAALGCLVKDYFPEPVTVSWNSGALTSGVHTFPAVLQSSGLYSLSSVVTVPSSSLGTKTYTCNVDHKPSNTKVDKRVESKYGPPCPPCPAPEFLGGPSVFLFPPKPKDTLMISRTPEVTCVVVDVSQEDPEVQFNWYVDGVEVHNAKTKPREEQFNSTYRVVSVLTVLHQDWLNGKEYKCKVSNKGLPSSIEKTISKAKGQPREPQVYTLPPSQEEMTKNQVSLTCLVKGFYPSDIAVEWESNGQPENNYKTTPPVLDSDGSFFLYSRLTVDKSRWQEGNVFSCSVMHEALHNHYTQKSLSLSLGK
light: DIQMTQSPSSVSASVGDRVTITCKASQDVDTAVAWYQQKPGKAPKLLIYWASTRHTGVPSRFSGSGSGTDFTLTISSLQPEDFATYYCQQYSTFPWTFGGGTKVEIKRTVAAPSVFIFPPSDEQLKSGTASVVCLLNNFYPREAKVQWKVDNALQSGNSQESVTEQDSKDSTYSLSSTLTLSKADYEKHKVYACEVTHQGLSSPVTKSFNRGEC
notes: as for B2
B5: BLP-15 (bispecific antibody, human IgG4 S228P, kappa)
heavy: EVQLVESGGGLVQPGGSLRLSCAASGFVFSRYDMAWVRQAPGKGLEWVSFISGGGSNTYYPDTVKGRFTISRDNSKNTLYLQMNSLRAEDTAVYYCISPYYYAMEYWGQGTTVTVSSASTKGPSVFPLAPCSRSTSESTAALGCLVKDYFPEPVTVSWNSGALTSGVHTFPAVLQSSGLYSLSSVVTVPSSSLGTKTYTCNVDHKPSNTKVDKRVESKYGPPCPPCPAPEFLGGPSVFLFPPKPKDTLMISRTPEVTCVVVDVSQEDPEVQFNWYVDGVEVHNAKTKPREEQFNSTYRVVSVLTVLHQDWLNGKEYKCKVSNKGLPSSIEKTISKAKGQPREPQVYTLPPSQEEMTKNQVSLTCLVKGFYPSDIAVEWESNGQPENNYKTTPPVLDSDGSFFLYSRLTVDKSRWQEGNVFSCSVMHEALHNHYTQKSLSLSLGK
light: EVQLVESGGGLVQPGGSLRLSCAASGYTVSSYCMGWFRQAPGKGREGVSAIDSDGSVSYADSVKGRFTISKDNSKNTLYLQMNSLRAEDTAVYFCAADLCWVDQDQGEYNTWGQGTLVTVSSEPKSSDKTHTSPPSPDIQMTQSPSSVSASVGDRVTITCKASQDVDTAVAWYQQKPGKAPKLLIYWASTRHTGVPSRFSGSGSGTDFTLTISSLQPEDFATYYCQQYSTFPWTFGGGTKVEIKRTVAAPSVFIFPPSDEQLKSGTASVVCLLNNFYPREAKVQWKVDNALQSGNSQESVTEQDSKDSTYSLSSTLTLSKADYEKHKVYACEVTHQGLSSPVTKSFNRGEC
notes: also called PD-1 x LAG-3 BABP

Legend:
[1] = biological target: PD-1 in the PD-1 cell based reporter assay; assay: cell-based or functional assay
Human PD-1 [2] = biological target: T1, Human PD-1 (human, UniProt Q15116 25-167, limits assumed); assay: SPR (Biacore T200), as in Example 3; Experiment 1
T1 sequence (Q15116 25-167 limits assumed): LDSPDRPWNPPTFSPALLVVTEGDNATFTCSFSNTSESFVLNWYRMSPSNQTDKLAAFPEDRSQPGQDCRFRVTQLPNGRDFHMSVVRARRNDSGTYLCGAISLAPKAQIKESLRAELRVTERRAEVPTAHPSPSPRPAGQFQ

Human PD-1 [3] = biological target: T1, Human PD-1; assay: SPR (Biacore T200), as in Example 3; Experiment 2
[4] = biological target: T2, PD-1 expressed on CHO cells (UniProt Q15116 25-288, limits assumed); assay: flow cytometry on CHO cells expressing PD-1; Experiment 1
T2 construct: whole, on cells; also called CHO-PD-1 cells
T2 sequence (Q15116 25-288 limits assumed): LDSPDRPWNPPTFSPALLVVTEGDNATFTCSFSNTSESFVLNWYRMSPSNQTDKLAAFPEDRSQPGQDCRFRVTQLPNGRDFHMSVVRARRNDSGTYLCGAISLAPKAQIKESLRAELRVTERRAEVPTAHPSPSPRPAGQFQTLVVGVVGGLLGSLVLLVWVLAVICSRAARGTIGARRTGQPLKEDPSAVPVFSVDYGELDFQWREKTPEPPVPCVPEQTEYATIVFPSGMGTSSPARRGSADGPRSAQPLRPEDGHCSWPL

[5] = biological target: T2, PD-1 expressed on CHO cells; assay: flow cytometry on CHO cells expressing PD-1; Experiment 2
[6] = biological target: T2, PD-1 expressed on CHO cells; assay: flow cytometry competition; blocks PD-L1 binding to CHO-PD-1 cells; Experiment 1
[7] = biological target: T2, PD-1 expressed on CHO cells; assay: flow cytometry competition; blocks PD-L1 binding to CHO-PD-1 cells; Experiment 2
[8] = biological target: LAG-3 on Thaw-and-Use LAG-3 Effector cells; assay: cell-based or functional assay

Binder	PD-1 cell based reporter assay EC50 [1]	Kd (Human PD-1 [2])	Kd (Human PD-1 [3])	EC50 [4]	EC50 [5]	EC50 [6]	EC50 [7]	LAG-3 blockade reporter assay EC50 [8]
B1	1.34 nM and 1.21 nM	1.4 nM	2.3 nM	2.44 nM	6.27 nM	1.72 nM	9.56 nM	
B2	5.14 nM	4.4 nM		4.29 nM		3.2 nM		2.04 nM
B3	5.92 nM	2 nM		4.64 nM		4.38 nM		1.45 nM
B4	5.94 nM	4.5 nM		3.51 nM		2.58 nM		1.85 nM
B5	3.32 nM		4.4 nM		13.7 nM		18.5 nM	5.12 nM
